Test results reported in article doi:10.1101/2023.09.26.559624 (bioRxiv, 2023).
Substitutions are numbered along the chain they refer to.

Experiments:
[1] = biological target: T1, SASH1-SPIDER (396-564) S519N (human, UniProt O94885 396-564, S519N); assay: NMR titration
T1 sequence (looked up): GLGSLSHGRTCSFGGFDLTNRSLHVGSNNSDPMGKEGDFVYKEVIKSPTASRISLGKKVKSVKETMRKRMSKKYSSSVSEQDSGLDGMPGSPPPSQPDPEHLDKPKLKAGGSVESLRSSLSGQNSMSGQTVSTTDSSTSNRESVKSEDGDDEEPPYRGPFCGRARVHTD

[2] = biological target: T2, human non-variant SASH1-SPIDER (396-564) (human, UniProt O94885 396-564); assay: MST
T2 sequence (looked up): T1 sequence (looked up) with N124S

B1: ARC4 domain of TNKS2 with flanking residues (488-649) (domain or fragment, UniProt Q9H2K2 488-649, looked up)
chain: GNSEADRQLLEAAKAGDVETVKKLCTVQSVNCRDIEGRQSTPLHFAAGYNRVSVVEYLLQHGADVHAKDKGGLVPLHNACSYGHYEVAELLVKHGAVVNVADLWKFTPLHEAAAKGKYEICKLLLQHGADPTKKNRDGNTPLDLVKDGDTDIQDLLRGDAAL
modifications: red fluorescent dye NT-647 Maleimide (in the MST experiment only)
[1]
  fold attenuation of affinity against N.V.: ~10 fold
[2]
  Kd: 1.7 ± 0.4 µM
